For 2 molecules, arrestin-GFP translocation (TI/TF, two hours, EC50 and Kd results are on record in patent publication US20090075314A1 (DUKE UNIVERSITY, published 2009).

Test [1] concerns the target T1, human gastrin/CCK-B receptor (human, UniProt P32239 1-447).
T1 construct: Permanently expressed with arrestin-GFP in HEK-293 cells (Clone A); also called gastrin receptor; homo sapiens cholecystokinin B receptor
T1 sequence: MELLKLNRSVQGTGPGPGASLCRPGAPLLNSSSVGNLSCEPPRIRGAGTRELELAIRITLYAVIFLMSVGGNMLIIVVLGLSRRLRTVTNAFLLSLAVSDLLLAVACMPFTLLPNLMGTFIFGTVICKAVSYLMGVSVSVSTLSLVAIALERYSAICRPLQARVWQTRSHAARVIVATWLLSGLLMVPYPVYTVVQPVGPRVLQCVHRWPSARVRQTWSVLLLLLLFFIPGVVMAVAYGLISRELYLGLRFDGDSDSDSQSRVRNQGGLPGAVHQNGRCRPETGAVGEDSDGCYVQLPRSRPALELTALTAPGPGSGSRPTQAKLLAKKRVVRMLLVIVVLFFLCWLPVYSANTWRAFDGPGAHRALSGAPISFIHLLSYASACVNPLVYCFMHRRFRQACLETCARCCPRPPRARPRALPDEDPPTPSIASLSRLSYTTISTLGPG
The test can be described thus: cell-based or functional assay.

Test [2] addresses T1, human gastrin/CCK-B receptor. The test can be described thus: competitive displacement of [3H]CCK-8 from Clone A by hG17. The protocol:
(§1) Membrane Preparation/Binding—All steps were performed at 4° C. Membrane binding was performed in triplicate as described in Shetzline et al., J. Biol. Chem. 273:[…] (1998). Membrane fractions were assayed immediately or stored at −80° C. […] Data were analyzed using Graph Pad-Prism.
(§2) Data are presented as mean±SEM.
Background: Loss of bound radioactivity is the signal in a displacement assay; it reports binding, not function.

For test [3] the target is unchanged. In words: derived from competitive displacement of [3H]CCK-8 from Clone A by hG17. The protocol: as §1, §2

No end group written: not given here.

pentagastrin (peptide) returned an arrestin-GFP translocation (TI/TF, two hours at 37° C.) in test [1] of 2.4 nM. For orientation: EC50 means the concentration that produces a half-maximal response. Read a high EC50 as weaker potency. The term Kd denotes the free concentration of one partner at which half of the binding sites on the other are occupied at equilibrium, for simple one-to-one binding. Low values mean a tighter complex, high ones a looser complex. Regarding QGPWLEEEEEAYGWMDF-NH2 (peptide, UniProt P01350 76-92, looked up, domain: gastrin-17; also called hGl 7) [synthetic human gastrin-17 peptide (hG17)], the midpoint of the response in test [2], the EC50, lay at 28 nM. The Kd in test [3] is 17 nM.
